The values below come from paper doi:10.1101/2025.09.22.677823.

Experiment [1] has as its target Human adenovirus 7 penton base (human adenovirus 7). The experiment in a line: cryo-EM structure.
The target of experiment [2] is Human adenovirus 7 fiber (human adenovirus 7). The experiment in a line: cryo-EM structure.

As usually defined, the stoichiometry N is a count of units in the complex or per binding partner. The substance “Human adenovirus 7 penton base (natural protein)” registered a stoichiometry N in experiment [1] of 5.

As for “Human adenovirus 7 fiber (natural protein)”, the stoichiometry N in experiment [2] is 3.
